# Laboratory results reported in PMC12412624, “Engineered Cas12j‐8 is a Versatile Platform for Multiplexed Genome Modulation in Mammalian Cells”.
# Numbering of substitutions follows the chain as printed.
# Assays:
# [1] = tested on: T1, dCas12j-8 D313R D313R;D369A;E567A;D658A (bacteriophage (metagenome)); conditions: HEK293T cells; panel 1c (compare within a panel only); scale: mean GFP / mean GFP of wild type, printed, no background subtraction
# T1 sequence: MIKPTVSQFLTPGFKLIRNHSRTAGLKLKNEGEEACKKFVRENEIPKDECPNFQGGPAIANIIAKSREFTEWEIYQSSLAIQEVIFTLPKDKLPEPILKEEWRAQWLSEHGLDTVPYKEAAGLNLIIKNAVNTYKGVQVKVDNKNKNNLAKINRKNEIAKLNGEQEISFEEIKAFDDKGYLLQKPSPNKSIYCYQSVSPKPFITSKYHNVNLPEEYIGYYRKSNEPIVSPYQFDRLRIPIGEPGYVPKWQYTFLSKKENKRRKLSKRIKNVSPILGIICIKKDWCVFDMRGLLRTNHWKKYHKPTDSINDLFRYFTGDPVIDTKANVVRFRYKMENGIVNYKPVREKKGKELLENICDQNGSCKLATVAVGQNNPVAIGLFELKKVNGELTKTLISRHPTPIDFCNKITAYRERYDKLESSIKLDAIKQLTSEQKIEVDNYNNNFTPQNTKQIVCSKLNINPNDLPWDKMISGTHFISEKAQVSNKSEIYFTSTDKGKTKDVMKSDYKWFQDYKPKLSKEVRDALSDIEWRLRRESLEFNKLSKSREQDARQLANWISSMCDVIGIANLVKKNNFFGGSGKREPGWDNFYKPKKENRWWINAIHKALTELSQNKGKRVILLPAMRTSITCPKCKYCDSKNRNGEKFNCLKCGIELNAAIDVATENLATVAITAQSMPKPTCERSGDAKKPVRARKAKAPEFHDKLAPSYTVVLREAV
# [2] = tested on: T2, dCas12j-8 D416R D416R;D369A;E567A;D658A (bacteriophage (metagenome)); conditions: HEK293T cells; panel 1c (compare within a panel only); scale: mean GFP / mean GFP of wild type, printed, no background subtraction
# T2 sequence: T1 sequence with R313D, D416R
# [3] = tested on: T3, dCas12j-8 E258R+D523R E258R;D523R;D369A;E567A;D658A (bacteriophage (metagenome)); conditions: HEK293T cells; panel 1d (compare within a panel only); scale: mean GFP / mean GFP of wild type, printed, no background subtraction
# T3 sequence: T1 sequence with E258R, R313D, D523R
# [4] = tested on: T4, dCas12j-8 E258R+E547R E258R;E547R;D369A;E567A;D658A (bacteriophage (metagenome)); conditions: HEK293T cells; panel 1d (compare within a panel only); scale: mean GFP / mean GFP of wild type, printed, no background subtraction
# T4 sequence: T1 sequence with E258R, R313D, E547R
sequence,measurement,setting,value
CUUUCAAGACUAAUAGAUUGCUCCUUACGAGGAGACACUCCCUAUCAGUGAUAGAG / TTNACTCCCTATCAGTGATAGAG / CTCTATCACTGATAGGGAGTNAA [TetO],binding signal,[1],1.59
same,binding signal,[2],0.46
same,binding signal,[3],2.67
same,binding signal,[4],3.03
